Biological target: FXI
Assay: Kd (SPR)

| Binder | Kd [nM] |
| --- | --- |
| unnamed (protein) chain 1: EVQLLESGGGLVQPGGSLRLSCAASGFTFSSYAMDWVRQAPGKGLEWVSGISGDGGSTVYADSVKGRFTISRDNSKNTLYLQMNSLRAEDTAVYYCTRGGPAYYYAFDYWGQGTTVTVSS chain 2: DIQMTQSPSSLSASVGDRVTITCQASQDISNYLNWYQQKPGKAPKLLIYDASNLETGVPSRFSGSGSGTDFTFTISSLQPEDIATYYCQQADSFPVTFGGGTKVEIK | 857 |
| unnamed (protein) chain 1: EVQLLESGGGLVQPGGSLRLSCAASGFTFSSYGMDWVRQAPGKGLEWVSGISSDGGSTVYADSVKGRFTISRDNSKNTLYLQMNSLRAEDTAVYYCTRDGPAYYYAFDVWGQGTTVTVSS chain 2: DIQMTQSPSSLSASVGDRVTITCQASQDISNYLNWYQQKPGKAPKLLIYDASNLETGVPSRFSGSGSGTDFTFTISSLQPEDIATYYCQQADSFPVTFGGGTKVEIK | 58 |
| unnamed (protein) chain 1: EVQLLESGGGLVQPGGSLRLSCAASGFTFSSYAMDWVRQAPGKGLEWVSGISSDGGSTVYADSVKGRFTISRDNSKNTLYLQMNSLRAEDTAVYYCTRGGPYYYYAFDVWGQGTTVTVSS chain 2: DIQMTQSPSSLSASVGDRVTITCQASQDISNYLNWYQQKPGKAPKLLIYDASNLETGVPSRFSGSGSGTDFTFTISSLQPEDIATYYCQQADSFPVTFGGGTKVEIK | 375 |
| unnamed (protein) chain 1: EVQLLESGGGLVQPGGSLRLSCAASGFTFSSYAMDWVRQAPGKGLEWVSGISSDGGSTVYADSVKGRFTISRDNSKNTLYLQMNSLRAEDTAVYYCARGGPAYYYAFDVWGQGTTVTVSS chain 2: DIQMTQSPSSLSASVGDRVTITCQASQDISNYLNWYQQKPGKAPKLLIYDASNLETGVPSRFSGSGSGTDFTFTISSLQPEDIATYYCQQADSFPVTFGGGTKVEIK | 635 |
| unnamed (protein) chain 1: EVQLLESGGGLVQPGGSLRLSCAASGFTFSSYAMDWVRQAPGKGLEWVSGISSDGGSTVYADSVKGRFTISRDNSKNTLYLQMNSLRAEDTAVYYCARDGPSYYYAFDVWGQGTTVTVSS chain 2: DIQMTQSPSSLSASVGDRVTITCQASQDISNYLNWYQQKPGKAPKLLIYDASNLETGVPSRFSGSGSGTDFTFTISSLQPEDIATYYCQQADSFPVTFGGGTKVEIK | 51.1 |
| unnamed (protein) chain 1: EVQLLESGGGLVQPGGSLRLSCAASGFTFSSYGMDWVRQAPGKGLEWVSGISADGGSTVYADSVKGRFTISRDNSKNTLYLQMNSLRAEDTAVYYCTRGGPAYYYAFDVWGQGTTVTVSS chain 2: DIQMTQSPSSLSASVGDRVTITCQASQDISNYLNWYQQKPGKAPKLLIYDASNLETGVPSRFSGSGSGTDFTFTISSLQPEDIATYYCQQADSFPVTFGGGTKVEIK | 245 |
| unnamed (protein) chain 1: EVQLLESGGGLVQPGGSLRLSCAASGFTFSQYGMDWVRQAPGKGLEWVSGIGPSGGSTVYADSVKGRFTISRDNSKNTLYLQMNSLRAEDTAVYYCTRGGPYYYYGMDVWGQGTTVTVSS chain 2: DIQMTQSPSSLSASVGDRVTITCQASQDISNYLNWYQQKPGKAPKLLIYDASNLETGVPSRFSGSGSGTDFTFTISSLQPEDIATYYCQQADSFPVTFGGGTKVEIK | 102 |
| unnamed (protein) chain 1: EVQLLESGGGLVQPGGSLRLSCAASGFTFSSYGMDWVRQAPGKGLEWVSGISSDGGSTVYADSVKGRFTISRDNSKNTLYLQMNSLRAEDTAVYYCTRDGPSYYYAFDVWGQGTTVTVSS chain 2: DIQMTQSPSSLSASVGDRVTITCQASQDISNYLNWYQQKPGKAPKLLIYDASNLETGVPSRFSGSGSGTDFTFTISSLQPEDIATYYCQQADSFPVTFGGGTKVEIK | 80.9 |
| unnamed (protein) chain 1: EVQLLESGGGLVQPGGSLRLSCAASGFTFSSYAMDWVRQAPGKGLEWVSGISSDGGSTVYADSVKGRFTISRDNSKNTLYLQMNSLRAEDTAVYYCTRDGPWYYYAFDVWGQGTTVTVSS chain 2: DIQMTQSPSSLSASVGDRVTITCQASQDISNYLNWYQQKPGKAPKLLIYDASNLETGVPSRFSGSGSGTDFTFTISSLQPEDIATYYCQQADSFPVTFGGGTKVEIK | 692 |
| unnamed (protein) chain 1: EVQLLESGGGLVQPGGSLRLSCAASGFTFSSYAMDWVRQAPGKGLEWVSGISYDGGSTVYADSVKGRFTISRDNSKNTLYLQMNSLRAEDTAVYYCARGGPAYYYAFDVWGQGTTVTVSS chain 2: DIQMTQSPSSLSASVGDRVTITCQASQDISNYLNWYQQKPGKAPKLLIYDASNLETGVPSRFSGSGSGTDFTFTISSLQPEDIATYYCQQADSFPVTFGGGTKVEIK | 702 |
| unnamed (protein) chain 1: EVQLLESGGGLVQPGGSLRLSCAASGFTFSQYGMDWVRQAPGKGLEWVSGIGPSGGSTVYADSVKGRFTISRDNSKNTLYLQMNSLRAEDTAVYYCARRGRYGLYAMDYWGQGTTVTVSS chain 2: DIQMTQSPSSLSASVGDRVTITCQASQDISNYLNWYQQKPGKAPKLLIYDASNLETGVPSRFSGSGSGTDFTFTISSLQPEDIATYYCQQADSFPVTFGGGTKVEIK | 2040 |
| unnamed (protein) chain 1: EVQLLESGGGLVQPGGSLRLSCAASGFTFSSYAMDWVRQAPGKGLEWVSGISADGGSTVYADSVKGRFTISRDNSKNTLYLQMNSLRAEDTAVYYCTRGGPAYYYAFDYWGQGTTVTVSS chain 2: DIQMTQSPSSLSASVGDRVTITCQASQDISNYLNWYQQKPGKAPKLLIYDASNLETGVPSRFSGSGSGTDFTFTISSLQPEDIATYYCQQADSFPVTFGGGTKVEIK | 707 |
| unnamed (protein) chain 1: EVQLLESGGGLVQPGGSLRLSCAASGFTFSSYAMDWVRQAPGKGLEWVSGISADGGSTVYADSVKGRFTISRDNSKNTLYLQMNSLRAEDTAVYYCTRDGPAYYYGFDVWGQGTTVTVSS chain 2: DIQMTQSPSSLSASVGDRVTITCQASQDISNYLNWYQQKPGKAPKLLIYDASNLETGVPSRFSGSGSGTDFTFTISSLQPEDIATYYCQQADSFPVTFGGGTKVEIK | 485 |

Second part, the binder after the results:

| Kd [nM] | Binder |
| --- | --- |
| 310 | unnamed (protein) chain 1: EVQLLESGGGLVQPGGSLRLSCAASGFTFSSYAMDWVRQAPGKGLEWVSGISSDGGSTVYADSVKGRFTISRDNSKNTLYLQMNSLRAEDTAVYYCARGGPAYYYGFDVWGQGTTVTVSS chain 2: DIQMTQSPSSLSASVGDRVTITCQASQDISNYLNWYQQKPGKAPKLLIYDASNLETGVPSRFSGSGSGTDFTFTISSLQPEDIATYYCQQADSFPVTFGGGTKVEIK |
| 505 | unnamed (protein) chain 1: EVQLLESGGGLVQPGGSLRLSCAASGFTFSSYAMDWVRQAPGKGLEWVSGISSDGGSTVYADSVKGRFTISRDNSKNTLYLQMNSLRAEDTAVYYCARGGPSYYYAFDVWGQGTTVTVSS chain 2: DIQMTQSPSSLSASVGDRVTITCQASQDISNYLNWYQQKPGKAPKLLIYDASNLETGVPSRFSGSGSGTDFTFTISSLQPEDIATYYCQQADSFPVTFGGGTKVEIK |
| 693 | unnamed (protein) chain 1: EVQLLESGGGLVQPGGSLRLSCAASGFTFSSYAMDWVRQAPGKGLEWVSGISSDGGSTVYADSVKGRFTISRDNSKNTLYLQMNSLRAEDTAVYYCTRDGPYYYYAFDVWGQGTTVTVSS chain 2: DIQMTQSPSSLSASVGDRVTITCQASQDISNYLNWYQQKPGKAPKLLIYDASNLETGVPSRFSGSGSGTDFTFTISSLQPEDIATYYCQQADSFPVTFGGGTKVEIK |
| 293 | unnamed (protein) chain 1: EVQLLESGGGLVQPGGSLRLSCAASGFTFSSYGMDWVRQAPGKGLEWVSGISSDGGSTVYADSVKGRFTISRDNSKNTLYLQMNSLRAEDTAVYYCTRGGPAYYYAFDVWGQGTTVTVSS chain 2: DIQMTQSPSSLSASVGDRVTITCQASQDISNYLNWYQQKPGKAPKLLIYDASNLETGVPSRFSGSGSGTDFTFTISSLQPEDIATYYCQQADSFPVTFGGGTKVEIK |
| 546 | unnamed (protein) chain 1: EVQLLESGGGLVQPGGSLRLSCAASGFTFSSYAMDWVRQAPGKGLEWVSGISGDGGSTVYADSVKGRFTISRDNSKNTLYLQMNSLRAEDTAVYYCTRGGPAYYYGFDVWGQGTTVTVSS chain 2: DIQMTQSPSSLSASVGDRVTITCQASQDISNYLNWYQQKPGKAPKLLIYDASNLETGVPSRFSGSGSGTDFTFTISSLQPEDIATYYCQQADSFPVTFGGGTKVEIK |
| 270 | unnamed (protein) chain 1: EVQLLESGGGLVQPGGSLRLSCAASGFTFSQYGMDWVRQAPGKGLEWVSGIGPSGGSTVYADSVKGRFTISRDNSKNTLYLQMNSLRAEDTAVYYCARDGSAYYYAFDVWGQGTTVTVSS chain 2: DIQMTQSPSSLSASVGDRVTITCQASQDISNYLNWYQQKPGKAPKLLIYDASNLETGVPSRFSGSGSGTDFTFTISSLQPEDIATYYCQQADSFPVTFGGGTKVEIK |
